The target in the assay is T1, P-0153, an IL-15/IL-15RαSushi+ Fc fusion protein.
T1 construct: Heterodimeric knob/hole Fc fusion; It served as the plate-coated source of IL-15 in the peptide ELISA
The assay is described as follows: ELISA; P-0153 coated on the plate at 1 ug/well, biotinylated peptide in 3-fold dilutions from 100 uM, streptavidin-HRP, TMB, OD450. As to the method: The five peptides, L01 to L05 (SEQ ID NO: 97-101) in Table 13 were synthesized and assessed for their binding to IL-15 in ELISA format. […] Streptavidin-HRP complex at the manufacturer's recommended concentration was added and signal was developed by TMB substrate.
A general note: In an ELISA, binding on a coated surface is turned into a signal by an enzyme label.

Where no end group is shown, it is not given here.

For orientation: EC50 (read off the curve) means the concentration at which the effect is half-maximal. The low end stands for an effect from little substance, the high end for a need for much substance.

T1 sequence (chain, as listed by the source, chain 1 of 2): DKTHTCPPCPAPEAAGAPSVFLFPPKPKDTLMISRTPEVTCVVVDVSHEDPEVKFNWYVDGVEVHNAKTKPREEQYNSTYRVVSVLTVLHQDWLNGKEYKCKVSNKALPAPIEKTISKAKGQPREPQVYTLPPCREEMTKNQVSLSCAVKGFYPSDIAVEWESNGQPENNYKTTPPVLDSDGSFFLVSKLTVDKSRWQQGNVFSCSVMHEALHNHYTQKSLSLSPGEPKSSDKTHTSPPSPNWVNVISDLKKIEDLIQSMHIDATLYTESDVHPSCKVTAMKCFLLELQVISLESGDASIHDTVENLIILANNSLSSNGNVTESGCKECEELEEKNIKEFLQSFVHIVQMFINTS
T1 sequence (chain, as listed by the source, chain 2 of 2): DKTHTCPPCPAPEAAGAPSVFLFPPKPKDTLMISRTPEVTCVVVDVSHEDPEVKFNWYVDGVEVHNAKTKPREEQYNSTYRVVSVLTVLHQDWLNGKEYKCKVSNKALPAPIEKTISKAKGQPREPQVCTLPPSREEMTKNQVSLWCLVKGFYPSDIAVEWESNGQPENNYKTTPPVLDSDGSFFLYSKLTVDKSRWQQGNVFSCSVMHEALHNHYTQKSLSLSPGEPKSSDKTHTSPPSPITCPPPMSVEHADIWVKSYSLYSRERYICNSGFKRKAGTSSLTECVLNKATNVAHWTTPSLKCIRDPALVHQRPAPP

B1: L02 (peptide)
peptide: EISQASHYFERHL
modifications: also: biotinylated, site not given here
notes: also called IL-2Rβ loop 2 peptide (linear)
Take B1: the binding result was “binds”.

As to LGAPDSQKLTTVDIVGGGGGGGGEISQASHYFERHL (also: biotinylated, site not given here) [L04], the binding result is given as “binds”.

B2: Blocking peptide L03 (cyclized IL-2Rβ loop 2) (peptide)
peptide: CEISQASHYFERHLC
modifications: also: biotinylated, position not given here, cyclized, mode and sites not given here
notes: Synthetic peptide
As to B2, the “EC50 (read off the curve)” value was about 8 µM.
